Test results published in patent publication US20170101466A1 (published 2017).
One block for each binder: values may come before it.

Columns and labels:
[1] = target: T1, soluble human BLyS (human, UniProt Q9Y275 134-285); assay: blocking of biotinylated soluble hBLyS binding to immobilized mBR3
T1 construct: also called hBLyS; human BAFF (BLyS)

[2] = target: T2, soluble mouse BLyS (mouse, UniProt Q9WU72 127-309); assay: ELISA, soluble mBLyS
T2 construct: europium-labelled in DELFIA; also called mBLyS; mouse BAFF (BLyS)

[3] = target: T1, soluble human BLyS; assay: ELISA, soluble hBLyS
[4] = target: T2, soluble mouse BLyS; assay: Biacore T100, binder captured by anti-human Fc, BLyS injected, 1:1 model
Description: (§1) A Series S CM5 Chip (GE Healthcare) was amine coupled with an anti-human Fc capturing antibody (GE Healthcare Human Fc Kit) to >10,000 RUs. Sample antibodies were diluted in 1×HBS-EP+ running buffer to 0.15 ug/mL and injected for 45 seconds at 10 uL/min. […] Biacore Evaluation software was used to fit the data to a 1:1 Binding Model.

[5] = target: T1, soluble human BLyS; assay: as above
Description: as §1

IC50 [1]: > 100 nM
B1: 6F5 IgG expressed in HEK293 cells (antibody, V domains shown)
VH: EVQLVQSGAEVKKPGSSVKVSCKASGGTFSSYAISWVRQAPGQGLEWMGGISAYKGNTNYAQKLQGRVTMTTDTSTSTAYMELRSLRSEDTAVYYCARGRLAEYDILTGYYFNTWAFDIWGQGTMVTVSS
VL: QSALTQPASVSGSPGQSITISCTGTSSDVGGYNYVSWYQQHPGKAPKLMIYDVSKRPSGVSNRFSGSKSGNTASLTISGLQAEDEADYYCSSYTSSSTPVLFGGGTKLTVLG
notes: IgG from HEK293-FreeStyle cells

binding result [2]: no binding
IC50 [1]: > 100 nM
B2: 2C5 IgG expressed in HEK293 cells (antibody, V domains shown)
VH: QVQLVQSGAEVKKPGASVKVSCKASGYTFTGYYIHWVRQAPGQGLEWMGWINPSSGGTNYAQKFQGRVTMTRDTSASTAFMSLSSLRSEDTAVYYCARSYYDILTGYSRNPFDNWGQGTPVTVSS
VL: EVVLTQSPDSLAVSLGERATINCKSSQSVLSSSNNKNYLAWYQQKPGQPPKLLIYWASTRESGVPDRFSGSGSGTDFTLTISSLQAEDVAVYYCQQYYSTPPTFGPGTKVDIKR
notes: as for B1

Kd [4]: 0.105 nM
koff [4]: 6.5e-05 s⁻¹
kon [4]: 621000 M⁻¹ s⁻¹
B6: human TACI (R&D Systems receptor chimera) (receptor, UniProt O14836 2-166, looked up, not shown: a dimerising Fc or GST)
chain: SGLGRSRRGGRSRVDQEERFPQGLWTGVAMRSCPEEQYWDPLLGTCMSCKTICNHQSQRTCAAFCRSLSCRKEQGKFYDHLLRDCISCASICGQHPKQCAYFCENKLRSPVNLPPELRRQRSGEVENNSDNSGRYQGLEHRGSEASPALPGLKLSADQVALVYST
notes: also called hTACI; TACI rec Human

binding result [2]: no binding
IC50 [1]: > 100 nM
B7: 1D6 IgG expressed in HEK293 cells (antibody, V domains shown)
VH: QVTLKESGPTLVKPTQTLTLTCTFSGFSLSTDGVGVGWIRQPPGKALEWLALIYGDDDKRYSPSLKSRLTITKDTSKNQVVLTMTNMDPVDTATYYCAHSISNYDILTGHWIAKTYDYWGQGTLVTVSS
VL: QSALTQPPSASGSPGQSVSISCIGSRSDIGYYNYVSWYQQHPGEAPKLIIFDVSKRPSGVPDRFSGSKSGNTASLTVSGLQPEDEADYYCASYGGRNNLLFGGGTQLTVLG
notes: as for B1

binding result [2]: no binding
B8: 10B1 IgG expressed in HEK293 cells (antibody, V domains shown)
VH: EVQLVESGAEVKKPGASVKVSCKASGYTFTSYGISWVRQAPGQGLEWMGWISAYNGNTNYAQKLQGRVTMTTDTSTSTAYMELRSLRSDDTAVYYCARADYDILTGYPRGPVDYWGQGTLVTVSS
VL: QSALTQPPSASGSPGQSVTISCTGTSSDVGHYNYVSWYQQHPGKAPKLIIFDVSDRPSGVSNRFSGSKSGNTASLTISGLQAEDEANYYCSSYTSRNTLIFGGGTKLTVLG
notes: as for B1

The next lines start with the binder.

B3: 1B5 IgG expressed in HEK293 cells (antibody, V domains shown)
VH: QVQLQESGPGLVEPSETLSLTCTVSGGSISGRNYYWGWIRQSTGKGLEWIGSIYYSGSTYYNPSLKSRVTISVDTSKNQFSLKLSSVTAADTAVYYCARDLANYDILTGYYRARGAFDIWGQGTMVTVSS
VL: QSALTQPASVSGSPGQSITISCTGTSSDVGGYNYVSWYQQHPGKAPKLMIYDVNKRPSGVPDRFSGSKSANTASLTVSGLQAEDEADYYCSSYTAGGNWVFGGGTKLTVLG
notes: as for B1
IC50 [3]: 15 nM
IC50 [2]: 17 nM
IC50 [1]: 21 nM

B4: 5G10 IgG1 F243A/V264A double mutein expressed in Pichia pastoris (antibody, V domains shown)
VH: QMQLVQSGAEVKKPGASVKVSCKASGYTFTSYAMHWVRQAPGQRLEWMGWINAGNGNTKYSQKFQGRVTITRDTSASTAYMELSSLRSEDTAVYYCAREMAVAGTYYYYGMDVWGQGTTVTVSS
VL: DIQLTQSPSTLSASVGDRVTITCRASQSISGWLAWYQQKPGRAPKLLIYKASSLESGVPSRFSGSGSGTDFTLTISSLQPEDIATYYCQQFDNLLLMYTFGQGTKLEIRR
notes: IgG1 F243A/V264A (EU) double mutein, alpha-2,6-sialylated, from glycoengineered Pichia pastoris; also called 5G10 (D132947)
Kd [4]: 0.732 nM
koff [4]: 0.000451 s⁻¹
kon [4]: 616000 M⁻¹ s⁻¹

B5: 5G10 IgG expressed in HEK293 cells (antibody, V domains shown)
VH: B4 VH
VL: B4 VL
notes: as for B1
IC50 [2]: 51 nM

B9: 6A11 IgG1 F243A/V264A double mutein expressed in Pichia pastoris (antibody, V domains shown)
VH: QIQLVQSGTEVKKPGASVKVSCKASGYTFTDYYMHWVRQAPGQGLEWMGRINPNSGGTNYAQKFQGRVTMTRDTSISTAYMELSRLRSDDTFVYYCAREGYDFLTGYTLGGMDVWGQGTTVTVSS
VL: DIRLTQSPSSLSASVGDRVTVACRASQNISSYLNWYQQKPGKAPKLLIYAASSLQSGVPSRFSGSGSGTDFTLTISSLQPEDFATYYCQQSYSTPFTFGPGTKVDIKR
notes: IgG1 F243A/V264A (EU) double mutein, alpha-2,6-sialylated, from glycoengineered Pichia pastoris; also called 6A11 (D132943)
Kd [5]: 0.905 nM
koff [5]: 0.000174 s⁻¹
kon [5]: 192000 M⁻¹ s⁻¹
Kd [4]: 0.121 nM
koff [4]: 0.000177 s⁻¹
kon [4]: 1.47e+06 M⁻¹ s⁻¹
